For assay [1], the target named is human Claudin-6 (CLDN6) (human) (UniProt P56747). The assay can be described thus: FACS, 1.5 ug Ab, 293T clone expressing human CLDN6 (2nd Ab only 768.07). (In general: In flow cytometry, cells or beads pass a laser one at a time.)
Assay [2] has the same target. The assay can be described thus: FACS, 0.3 ug Ab, ARK2 cells (2nd Ab only 1351.21).
For assay [3] the target is unchanged. The assay can be described thus: FACS, 1.5 ug Ab, ARK2 cells (2nd Ab only 1351.21).
The next assay deals with T1, mouse Claudin-6 (CLDN6) (mouse, UniProt Q9Z262 1-219).
T1 construct: whole, on cells; GFP fusion on engineered HEK293T cells; also called Mouse CLDN6; murine CLDN6
T1 sequence (looked up): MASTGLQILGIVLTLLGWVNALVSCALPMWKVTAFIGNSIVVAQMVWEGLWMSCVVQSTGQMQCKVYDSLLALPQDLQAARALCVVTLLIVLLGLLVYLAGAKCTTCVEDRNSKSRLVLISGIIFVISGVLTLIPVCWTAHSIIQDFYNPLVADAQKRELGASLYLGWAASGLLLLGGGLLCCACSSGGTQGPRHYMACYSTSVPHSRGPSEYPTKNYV
The assay can be described thus: FACS, 293T clone expressing mouse CLDN6, dose not stated (2nd Ab only 1061.72). The procedure: Two doses (1.5 μg or 0.3 μg) of the humanized antibodies were tested for binding to either human CLDN6 or murine CLDN6 which proteins were expressed by engineered 293T clones.

The target in assay [4] is human Claudin-6 (CLDN6) (human) (UniProt P56747). The assay can be described thus: FACS, 0.3 ug Ab, 293T clone expressing human CLDN6 (2nd Ab only 768.07).
The target is the same in assay [5]. The assay can be described thus: FACS, 1.5 ug Ab, OVCA429 cells (2nd Ab only 885.77).

B1: AB3-chim (antibody, V domains shown)
VH: EVKLEESGGGLVQPGGSMKLSCVASGFTFSNYWMNWVRQSPEKGLEWVAQIRLKSDNYATHYAESVKGRFTISRDDSKRSVYLQMNNLRAEDTGTYYCNDGPPSGCWGQGTTLIVSS
VL: DIQMTQSPASLSASVGETVTITCRISENIYSYLAWYQQKQGKSPQLLVYNAKILVEGVPSRFSGSGSGTQFSLKINSLQPEDFGNYYCQHHYTVPWTFGGGTKLEIK
Consider B1, for which the FACS fluorescence in assay [1] was 459000; in assay [2] it was 17100; in assay [3] it was 29100; with mouse Claudin-6 (CLDN6), 67900; in assay [4], 267000; in assay [5], 138000.

B2: AB1-Chim (antibody, V domains shown)
VH: QVQLQQSAAELARPGASVKMSCKASGYTFTTYTMHWVKQRPGQGLEWIGFINPSSGYTDYNQKFKDRTTLTADKSSSTVYMQLSSLTSEDSAVYYCANGDYYVAYWGQGTLVTVSA
VL: QIVLTQSPAIMSASLGERVTMTCTASSSVSSTYFHWYQQKPGSSPKLWIYSTSNLASGVPRRFSGSASGTSYSLTISSMEAEDAATYYCHQYHRSPLTFGAGTKLELK
For B2, the FACS fluorescence in assay [1] stood at 364000; in assay [2] it was 58800; in assay [3], 51900; with mouse Claudin-6 (CLDN6), 514000; in assay [4] it was 312000; in assay [5] it was 177000.

B3: AB4-4 (antibody, V domains shown)
VH: QVQLVQSGAEVKKPGASVKMSCKASGYTFTSYTMHWIRQAPGQGLEWIGYINPSSTYTHYAQKFQGRATLTADTSTSTAYMELSSLRSEDTAVYYCSRGELGGFAYWGQGTLVTVSS
VL: DVVMTQSPLSLPVTLGQPASISCRSSQSLVHSDGNTYLNWYQQRPGQSPRLLIYKVSNRFSGVPDRFSGSGSGTDFTLKISRVEAEDVGVYYCSQSTHVPYTFGQGTKLEIK
notes: humanized
Turning to B3, the FACS fluorescence in assay [1] amounted to 49000; in assay [2], 1050; in assay [3], 1400; in the assay with mouse Claudin-6 (CLDN6) it was 741; in assay [4] it was 14100; in assay [5], 1200.

B4: AB4-3 (antibody, V domains shown)
VH: QVQLVQSGAEVKKPGASVKVSCKASGYTFTSYTMHWVRQAPGQGLEWMGYINPSSTYTHYAQKFQGRVTMTADTSTSTVYMELSSLRSEDTAVYYCSRGELGGFAYWGQGTLVTVSS
VL: DVVMTQSPLSLPVTLGQPASISCRSSQSLVHSDGNTYLNWYQQRPGQSPRLLIYKVSNRFSGVPDRFSGSGSGTDFTLKISRVEAEDVGVYYCSQSTHVPYTFGQGTKLEIK
notes: humanized
Consider B4, for which the FACS fluorescence turned out to be 47800 in assay [1]; 1190 in assay [2]; 1520 in assay [3]; 671 with mouse Claudin-6 (CLDN6); 14300 in assay [4]; 1160 in assay [5].

B5: AB4-5 (antibody, V domains shown)
VH: QVQLVQSGAEVKKPGASVKMSCKASGYTFTSYTMHWIRQAPGQGQEWIGYINPSSTYTHYAQKFQGRATLTADTSTSTAYMELSSLRSEDTAVYYCSRGELGGFAYWGQGTLVTVSS
VL: DVVMTQSPLSLPVTLGQPASISCRSSQSLVHSDGNTYLNWYQQRPGQSPRLLIYKVSNRFSGVPDRFSGSGSGTDFTLKISRVEAEDVGVYYCSQSTHVPYTFGQGTKLEIK
notes: humanized
Turning to B5, the FACS fluorescence in assay [1] amounted to 43400; in assay [2] it was 967; in assay [3], 1200; with mouse Claudin-6 (CLDN6) it was 2000; in assay [4], 16800; in assay [5], 1350.

B6: AB9-4 (antibody, V domains shown)
VH: QVQLVQSGAEVKKPGASVKMSCKASGYRFTDYNMHWVRQAPGQGLEWIGYINPNNGGTNYAQKFQGRATLTVDTSTSTAYMELSSLRSEDTAVYYCARDYLYFFDCWGQGTLLTVSS
VL: DIQMTQSPSSLSASVGDRVTITCRASQTIGTWLAWYQQKPGKAPKLLIYAAASLADGVPSRFSGSGSGTDFTFTISSLQPEDFVTYYCQQLYSIPRTFGQGTKLEIK
notes: humanized
Turning to B6, the FACS fluorescence came to 34300 in assay [1]; 1120 in assay [2]; 1550 in assay [3]; 1710 with mouse Claudin-6 (CLDN6); 15300 in assay [4]; 1110 in assay [5].

B7: AB4-chim (antibody, V domains shown)
VH: QVQLQQSGAELARPGASVKMSCKASGYTFTSYTMHWIKQRPGQGQEWIGYINPSSTYTHYIKKFKDKATLTADKSSSTAYMQLRSLTSEDSAVYYCSRGELGGFAYWGQGTLVTVSA
VL: DVVMTQTPLSLPVSLGDQASISCRSSQSLVHSDGNTYLNWYLQKPGQSPKLLIYKVSNRFSGVPDRFSGSGSGTDFTLKIRRVEAEDLGVYFCSQSTHVPYTFGGGTKLEIK
Regarding B7, the FACS fluorescence in assay [1] was 327000; in assay [2] it was 19100; in assay [3], 38400; with mouse Claudin-6 (CLDN6), 3640; in assay [4] it was 176000; in assay [5] it was 64800.

B8: AB11-2 (antibody, V domains shown)
VH: EVQLVESGGGLVQPGGSLRLSCAASGFTFSSFGMHWVRQAPGKGLEWVAYISSDSRTIYYADSVKGRFTISRDNAKNSLYLQMNSLRAEDTAVYYCARDYGRTYEAYWGQGTLVTVSS
VL: DIVMTQSPDSLAVSLGERATINCRASKSVSTSGYSYIHWYQQKPGQPPKLLIYLASNLESGVPDRFSGSGSGTDFTLTISSLQAEDVAVYYCQHSRELPLTFGQGTKLEIK
notes: humanized
Turning to B8, the FACS fluorescence in assay [1] came out at 2560; in assay [2] it was 1400; in assay [3], 1940; with mouse Claudin-6 (CLDN6), 7160; in assay [4] it was 1290; in assay [5] it was 2690.

B9: AB11-3 (antibody, V domains shown)
VH: EVQLVESGGGLVQPGGSLRLSCAASGFTFSSFGMHWVRQAPGKGLEWVAYISSDSRTIYYADSVKGRFTISRDNAKNSLYLQMNSLRAEDTAVYYCARDYGRTYEAYWGQGTLVTVSS
VL: DIVLTQSPDSLAVSLGERATINCRASKSVSTSGYSYIHWYQQKPGQPPKLLIYLASNLESGVPDRFSGSGSGTDFTLTISSVQAEDVAVYYCQHSRELPLTFGQGTKLELK
notes: humanized
Take B9: the FACS fluorescence in assay [1] is 2360; in assay [2] it was 1320; in assay [3], 1540; with mouse Claudin-6 (CLDN6) it was 5520; in assay [4] it was 1010; in assay [5], 2200.

B10: AB11-chim (antibody, V domains shown)
VH: DVQLVESGGGLVQPRGSRKLSCAASGFTFSSFGMHWVRQAPEKGLEWVAYISSDSRTIYYADTVKGRFTISRDNPTNTLFLQMTSLRSEDTAMYYCARDYGRTYEAYWGQGTLVTVSA
VL: DIVLTQSPASLAVSLGQRATISCRASKSVSTSGYSYIHWYQQKPGQPPKLLIYLASNLESGVPARFSGSGSGTDFTLNIHPVEEEDAATYYCQHSRELPLTFGAGTKLELK
B10: the FACS fluorescence in assay [1] is 3490; in assay [2] it was 1320; in assay [3], 1260; in the assay with mouse Claudin-6 (CLDN6), 5490; in assay [4] it was 1670; in assay [5], 2440.

Values taken from patent US20230049752A1 (University of California, published 2023).
